Data set [1] can be described thus: TEM of hydrogel nanofibers. The data set is classed as physicochemical. Conditions: gel after incubation at 4 °C. The method, then:
Transmission Electron Microscopy. Transmission electron microscopy (TEM) images were taken with a FEI Talos L120C transmission electron microscope. The supramolecular assembly of Q2 and Q were monitored over the course of 60 and 144 hours, respectively (in correspondence with tube inversion and microrheology). TEM images were taken of the gel at times consistent with when microrheological measurements for Q2 for consistent fibril sizing. Samples were diluted to 50 μM and 3 μL was spotted on Formvar/carbon-coated copper grids followed by 5 μL wash with water, and 3 μL staining with 1% v/v uranyl acetate solution each with incubation times of 1 min. Following imaging, fibrils were sized in ImageJ software (Version 1.52q).
Transmission Electron Microscopy. Transmission electron microscopy (TEM) images were taken with a FEI Talos L120C transmission electron microscope. Samples were diluted to 50 μM and 3 μL was spotted on Formvar/carbon-coated copper grids followed by […] with water, and 3 μL staining with 1% v/v uranyl acetate solution each with incubation times of 1 min. Between steps, filter paper was used to gently wick the grids dry. Following imaging, minimum diameter nanofibers within the physically crosslinked hydrogel were sized in ImageJ software (Version 1.52q).

Data set [2] is described as follows: Tube inversion concentration-temperature phase diagram. The data set is classed as physicochemical. The following applies: for solubility limit: 50 mM Tris, 500 mM NaCl, pH 8.0; for UCST: at solubility limit, extent of gelation η 0.5. The method, then: Tube Inversion Test. Immediately after concentration to 2 mM, the protein was incubated at 4° C. over the course of two weeks after aliquoting 150 μL into a 2 mL Eppendorf tube. The samples were visually assessed for gelation by inverting the tubes at 12-hour time intervals thereafter, with gelled samples not flowing upon inversion.
Gelation. To study the relative gelation of Q2 as compared to the previously reported coiled-coil hydrogel, Q, protein was successfully expressed (FIG. 24), purified (FIG. 25), and concentrated to 2 mM (1% w/v) in Tris buffer (50 mM Tris, 500 mM NaCl) at pH 8.0. Purity of the protein was measured to be >99% by SDS-PAGE (FIG. 26) and concentration was measured by BCA assay. Immediately following concentration, the gelation process of Q2 was studied using the microrheology assay described previously following incubation at 4° C. Separately, 150 μL samples were aliquoted for tube inversion tests performed after 2 weeks of incubation for visual assessment of gelation over time at 4° C. (FIG. 19a-d) and at concentrations from 1 mM to 3.5 mM with temperatures 5° C. to 25° C. using 0.5 mM and 5° C. step sizes, respectively, to create a matrix-based phase diagram (FIG. 19e). Temperature and concentration ranges were selected based on preliminary tube-inversion testing at high and low ends of the ranges.
Thermoresponsiveness and material strength. UCST behavior of protein hydrogels was assessed by testing […] samples via tube inversion in 2 mL microtubes after incubation for two weeks at various temperatures and concentrations. Temperature conditions were modulated in the range of 5-40° C. The concentration range was modified depending on if precipitation was visually noticeable in the microtube at an earlier concentration, indicating a solubility limit to our phase diagram, as has been done previously. […] As done with Q2, the UCST of the hydrogels was determined using a bivariate linear relationship for the extent of gelation where tubes that passed gelation by tube inversion were assigned a value of 1 (shown in black in FIG. 52a and FIG. 64a-d) and tubes that failed gelation by tube inversion (shown in red in FIG. 52a and FIG. 64a-d) were assigned a value of 0. The heatmap in FIG. 52a and FIG. 64a-d was used to denote the range of extent of gelation where the equation was employed to solve for the UCST using the solubility limit and solving for an extent of gelation, η, value of 0.5. The UCSTs (FIG. 52b) for the hydrogels studied here were 13.0° C., 35.9° C., 33.6° C., 17.5° C., and 22.9° C. for Q3-7, respectively, as compared to 17.0° C. for Q and 22.0° C. for Q2 found previously. Bivariate regression allowed for solving the coefficients for the dependence of temperature and concentration on gelation.
Tube Inversion. Binary sol-gel behavior was assessed using tube inversion. Immediately after concentration to 2 mM, 150 μL of Q hydrogel variants were incubated in 2 mL microtubes at 4° C. for two weeks. Gelation was visually observed by inverting the microtube and inspecting the sample for flow from the top of tube.

The nature of data set [3]: Fluorescence recovery after photobleaching (FRAP). The following applies: one-phase association fit. The method, then: Protein fibrils are capable of blue autofluorescence as a result of protein self-assembly. Fluorescent recovery after photobleaching (FRAP) is measured by photobleaching using a 405 nm laser and measuring the spot intensity over time. This behavior was previously confirmed in the Q protein in a recent characterization. Using the correlation between autofluorescence and fibrilization, the relative autofluorescence of the coiled-coil protein hydrogels was measured. […] To assess the relative laser response, hydrogels were subjected to FRAP imaging using two 100% intensity bleaches at 405 nm excitation followed by imaging at 2 second frame intervals (FIG. 53c).
Confocal Imaging and Fluorescence Recovery After Photobleaching (FRAP). FRAP experiments were performed with a Stellaris 8 Falcon laser scanning confocal microscope on an inverted DMi8 CS stand equipped with 63X NA 1.4 lens. Images were taken with a laser at 405 nm excitation. A pre-bleach image was taken followed by two bleach images using 100% laser intensity for 1.5 s. Following, 41 images were taken post-bleach at 2 s intervals. To measure recovery, FIJI (version 2.3.0) was used to automate background and recovery imaging following photobleaching. Independent background intensities were fit to a one-phase decay equation in GraphPad Prism. Background loss, as a result of photobleaching, from fit values were added to spot intensity values before being fit to a one-phase association equation in GraphPad Prism.

The next data set is described as follows: Parallel plate rheology. The data set is classed as physicochemical. Conditions: 10 Hz, 5% strain. On the procedure:
Rheology. Mechanical integrity of the Q2 hydrogel was assessed using a stress-controlled rheometer (Discovery Hybrid Rheometer 2, TA Instruments) equipped with a parallel plate geometry. After complete gelation of a 2 mM sample at 4° C., the sample was loaded onto the 8 mm diameter lower and upper plates with a 0.2 mm geometry gap. Strain and frequency settings were informed from previous Q hydrogel studies where the storage modulus (G′) and loss modulus (G″) were measured over the frequency range 0.1-10 Hz with a 5% oscillation strain.
Rheology. Q hydrogel variants were assessed for relative mechanical integrity with a stress-controlled rheometer (Discovery Hybrid Rheometer 2, TA Instruments) equipped with a parallel plate geometry. In parallel with microrheology measurements, 100 μL of each variant was incubated at 4° C. Upon gelation as assessed by microrheology, hydrogels were loaded onto an 8 mm diameter lower and upper plate with a 0.2 mm geometry gap. Storage modulus (G′) and loss modulus (G″) were measured from 0.1-10 Hz with 5% oscillation strain.

The nature of the next data set: TEM of protein fibers. Type of data set: physicochemical. The following applies: fibers. On the procedure: Transmission Electron Microscopy. Transmission electron microscopy (TEM) images were taken with a FEI Talos L120C transmission electron microscope. Protein fiber samples were diluted to 50 μM and 3 μL was spotted on Formvar/carbon-coated copper grids followed by 5 μL wash with water, and 3 μL staining with 1% v/v uranyl acetate solution each with incubation times of 1 min at RT. Fibrils were sized in ImageJ software (Version 1.52q).
Transmission Electron Microscopy. Transmission electron microscopy (TEM) images were taken with a FEI Talos L120C transmission electron microscope. Samples were diluted to 50 μM and 3 μL was spotted on Formvar/carbon-coated copper grids followed by a 5 μL wash with water, and 3 μL staining with 1% v/v uranyl acetate solution each with incubation times of 1 min. Between steps, filter paper was used to wick the grids. Following imaging, fibrils were sized in ImageJ software (Version 1.52q).

Values joined by “and” are separate entries in the source; they are usually repeats but may differ in a detail not shown here. Equal entries are not always repeated.

In the case of “Q6: Q hydrogel variant from trimodal Monte Carlo search, SEQ ID NO: 15 (MRGSHHHHHHGSIEGRVKEITFIKKQIEQIAEEMKEINKAIHDIRHALENISKK) [Protein Q6]”, the “hydrogel fibril diameter (TEM)” value in data set [1] was determined as 39.9±16.9 nm. In data set [2], this substance showed a solubility limit of 3000 µM and a UCST of 17.5 °C. Also, in data set [3], the Halftime amounted to 5.1 s, the K came to 0.1 s⁻¹ and the Tau is listed as 7.3 s. Moreover, in the data set “Parallel plate rheology”, the “loss modulus G″” value was 13±6 Pa and 13.0 ± 5.7 Pa; the “storage modulus G′” value is 253±123 Pa and 252.9 ± 122.7 Pa.

In the case of “Q7: Q hydrogel variant from trimodal Monte Carlo search, SEQ ID NO: 16 (MRGSHHHHHHGSIEGRVKEMTFIKKTIEQQAEEMKEINKAIHDIRHALENISKK) [Protein Q7]”, the “hydrogel fibril diameter (TEM)” value in data set [1] came to 36.3±10.8 nm. In data set [2], this substance displayed a solubility limit of 3000 µM and a UCST of 22.9 °C. Further, in data set [3], the Halftime is recorded as 9.7 s, the K came out at 0.1 s⁻¹ and the Tau was found to be 13.9 s. Also, in the data set “Parallel plate rheology”, the “loss modulus G″” value is 21±8 Pa and 20.6 ± 7.9 Pa; the “storage modulus G′” value is 298±62 Pa and 297.5 ± 61.7 Pa.

As to “Q4: Q hydrogel variant from Rosetta Monte Carlo search, SEQ ID NO: 13 (MRGSHHHHHHGSIEGRVKEITFIKKTIEQIAEEMKEINKAIHDIRHALENISKK) [Protein Q4]”, the “hydrogel fibril diameter (TEM)” value in data set [1] is given as 27.2±8.7 nm. In data set [2], the solubility limit amounted to 4000 µM and the UCST amounted to 35.9 °C. In data set [3], the Halftime amounted to 5.7 s, the K stood at 0.1 s⁻¹ and the Tau is reported as 8.2 s. Moreover, in “Parallel plate rheology”, the “loss modulus G″” value was 15.0 ± 3.2 Pa; the “storage modulus G′” value was 70±20 Pa and 69.9 ± 19.7 Pa.

Regarding “Q9: Monte-Carlo output sequence with increased ΔEEbcf from the Q domain; probably SEQ ID NO: 18 (MRGSHHHHHHGSIEGRVKEIKFLKNTAPQQLRELQNTNMALQDVRELLQQQSTL) [Protein Q9]”, the “fiber diameter, largest population of sizes” value in “TEM of protein fibers” stood at 1280±330 nm. Moreover, in “TEM of protein fibers” (50 mM NaH2PO4 pH 4.0), the “average protein fiber diameter (TEM)” value is 760±170 nm.
